According to publication PMC10816986, “The Role of Key Amino Acids of the Human Fe(II)/2OG-Dependent Dioxygenase ALKBH3 in Structural Dynamics and Repair Activity toward Methylated DNA” (International Journal of Molecular Sciences, 2024):
Positions count from the first letter of the chain named. Names and notes keep the numbering of the source.

B1: wt ALKBH3: wild-type human Fe(II)/2OG-dependent dioxygenase ALKBH3 with N-terminal His-tag, expressed in E. coli (protein, UniProt Q96Q83 1-286, looked up)
Alpha-ketoglutarate-dependent …: MEEKRRRARVQGAWAAPVKSQAIAQPATTAKSHLHQKPGQTWKNKEHHLSDREFVFKEPQQVVRRAPEPRVIDREGVYEISLSPTGVSRVCLYPGFVDVKEADWILEQLCQDVPWKQRTGIREDITYQQPRLTAWYGELPYTYSRITMEPNPHWHPVLRTLKNRIEENTGHTFNSLLCNLYRNEKDSVDWHSDDEPSLGRCPIIASLSFGATRTFEMRKKPPPEENGDYTYVERVKIPLDHGTLLIMEGATQADWQHRVPKEYHSREPRVNLTFRTVYPDPRGAPW
modifications: N-terminal His-tag
notes: wild-type human Fe(II)/2OG-dependent dioxygenase ALKBH3 with N-terminal His-tag, expressed in E. coli
B2: H191A ALKBH3: ALKBH3 mutant, His191 replaced with Ala (protein, UniProt Q96Q83 1-286, looked up, variant H191A)
Alpha-ketoglutarate-dependent …: B1 Alpha-ketoglutarate-dependent … with H191A
B3: Y143F ALKBH3: ALKBH3 mutant, Tyr143 replaced with Phe (protein, UniProt Q96Q83 1-286, looked up, variant Y143F)
Alpha-ketoglutarate-dependent …: B1 Alpha-ketoglutarate-dependent … with Y143F
B4: L177A ALKBH3: ALKBH3 mutant, Leu177 replaced with Ala (protein, UniProt Q96Q83 1-286, looked up, variant L177A)
Alpha-ketoglutarate-dependent …: B1 Alpha-ketoglutarate-dependent … with L177A
B5: Y143A ALKBH3: ALKBH3 mutant, Tyr143 replaced with Ala (protein, UniProt Q96Q83 1-286, looked up, variant Y143A)
Alpha-ketoglutarate-dependent …: B1 Alpha-ketoglutarate-dependent … with Y143A

Experiments:
[1] = system: m3C_FRET substrate (m3C-containing DNA); experiment: Stopped-flow FRET pre-steady-state kinetics of m3C DNA demethylation; type: biochemical; conditions: for k1 × 10^−6 / k2 / k3 / kr (irreversible step of substrate hydroxylation) / k−1 / k−2 / k−3 / Kd: global fitting of SF data to Scheme 1; for Kd: read-out: Kd^Product (equilibrium dissociation constant of the enzyme–product complex); for Ka = K1 + K1 × K2 + K1 × K2 × K3: overall affinity for damaged DNA, Ki = ki/k−i
Description: In previous research, we employed a stopped-flow (SF) method to detect conformational changes in the dioxygenases AlkB and ALKBH2, as well as their substrates, throughout the catalytic cycle. The SF technique provides excellent opportunities for studying the conformational dynamics of protein–nucleic acid complexes under pre-steady-state conditions within the millisecond time range. Conformational transitions are typically detected by measuring the fluorescent signal from the tryptophan residues of the enzyme or fluorescent labels incorporated into the DNA substrate sequence. […] It should be noted that another common approach to detecting conformational dynamics based on measurement of the intrinsic Trp fluorescence of ALKBH3 was unsuccessful due to a low signal-to-noise ratio. The time-dependent FRET signal profiles following rapid (1 ms) mixing of equimolar amounts of enzyme and the m3C_FRET substrate in the presence of Fe(II) and 2OG ligands were obtained under near single-turnover conditions (Figure 3). […] In the case of the wt protein, the initial stage of the enzyme–substrate interaction was accompanied by a slight increase in the FRET signal between 20 ms and 2 s. Subsequently, from 10 s to 250 s, a significant quenching of fluorescence occurs, followed by stabilization at a constant level. The kinetic curve obtained for the Y143F mutant was similar to wt ALKBH3, except that the phase of decrease in the signal was shifted towards longer time scales (20–600 s).
For wt and Y143F ALKBH3, a series of SF traces were recorded across a range of m3C substrate concentrations from 0.5 to 4.0 µM (Figure 4). […] Additionally, a slight increase in signal, absent in the native protein, is discernible in the initial segment (1–5 ms) of the curves for Y143F ALKBH3, most likely indicative of the primary enzyme–substrate binding.
Table 1 summarizes the values of the rate constants describing the forward and reverse reactions of the mechanism, as well as the equilibrium dissociation constant of the enzyme–product complex. […] Subsequent isomerization of the enzyme–substrate complex is characterized by two equilibrium steps, which occur at half the rate in wt ALKBH3, yet with greater efficiency than for the Y143F protein. To assess the overall affinity of ALKBH3’s active site for damaged DNA, the equilibrium constant Ka = K1 + K1 × K2 + K1 × K2 × K3, where Ki = ki/k−i, was determined. […] In contrast, the rate of the step of irreversible hydroxylation of the methyl group by the native protein (kr^wt = 0.023 s^−1) is nearly twice as fast as that of the Y143F mutant (kr^Y143F = 0.013 s^−1). Furthermore, the equilibrium dissociation constant of the enzyme–product complex (Kd^Product) is almost an order of magnitude higher for wt ALKBH3. […] The substitution of Tyr143 with Phe leads to a reduction in the rate and efficiency of demethylation of the m3C substrate, likely due to perturbations in the structure of the catalytically competent complex and strong product binding, which complicates the enzyme’s transition to the next turnover.
Figure 3 Time courses of the FRET signal generated by the FAM/BHQ1 pair under interactions of wt, Y143F, Y143A, L177A, and H191A ALKBH3 with m3C-containing DNA. The fluorescence traces represent changes in the FRET signal after rapid mixing of 1.5 µM m3C_FRET substrate with 1.5 µM protein in the presence of 40 µM Fe(II) and 1 mM 2OG. Each curve was collected in a split mode within four time intervals (up to 0.1, 1, 50, and 500 or 1000 s) in 4–5 replicates.
Figure 4 Pre-steady-state kinetics of m3C-containing DNA demethylation by wt (A) and Y143F (B) ALKBH3 proteins.

[2] = system: single-stranded DNA substrate m3C_FAM; experiment: Enzymatic demethylation of single-stranded m3C DNA (chemical quenching, HpaII cleavage, PAGE); type: biochemical; conditions: for observed rate constant for demethylation, kobs: single exponential fit of product accumulation; for maximum DNA substrate demethylation degree (product yield): 90 min reaction, 2 µM enzyme and m3C_FAM, 40 µM Fe(II), 1 mM 2OG, 25 °C
Method: The enzymatic activity of wt ALKBH3 dioxygenase and the Y143F, Y143A, L177A, and H191A mutants was investigated in a reaction with a 15nt single-stranded oligonucleotide substrate containing m3C at the ninth position from the 5’-end (see Section 4).
An enzymatic hydroxylation of a single-strand m3C-containing DNA was studied using a chemical quenching technique recently described for the ALKBH2 dioxygenase in [7]. Briefly, a typical reaction mixture contained an equimolar amount (2 µM) of the protein and FAM-labeled DNA substrate (m3C_FAM) in a buffer consisting of 50 mM of HEPES-KOH (pH 7.8), 50 mM of KCl, 10 mM of MgCl2, 1 mM of 2OG, 2 mM of sodium ascorbate, and 40 µM of (NH4)2Fe(SO4)2·6H2O. An equal volume of 0.2 M NaOH was added to […] of aliquots of the mixture to terminate the reaction at certain time points. After neutralization with HCl and desalting, each of the aliquots was supplemented by the complementary DNA strand and treated with the HpaII restriction endonuclease specific to the repaired sequence (CCGG) according to the manufacturer’s protocol. The resulting reaction product was separated from the substrate using denaturating PAGE and visualized by the Amersham Typhoon Imager (Cytiva, Uppsala, Sweden) (Supplementary Figure S1). Data for the wt, Y143F, and Y143A proteins were converted to mol/L units and then fitted to a single exponent (Equation (1)), where P, P0, and Pmax are amounts of product at any given time, at the zero-time point, and the end time point, respectively; kobs is the observed rate constant. (1) P=P0+Pmax(1−exp−kobst) […]
Figure 2 The catalytic activity of wt and mutant ALKBH3 proteins on single-stranded DNA substrate m3C_FAM. Time courses of the dealkylated product accumulation were obtained at 25 °C by mixing an equimolar amount (2 μM) of enzyme and FAM-labeled DNA substrate dissolved in the reaction buffer containing 40 μM Fe(II) and 1 mM 2OG. Each reaction time point is the mean ± SD of three technical replicates.
Figure S1. PAGE analysis of ALKBH3 repair activity towards the m3C -containing substrate. ALKBH3 at 2 µM was incubated with an equimolar amount of a FA M - labelled single-stranded substrate m3C_FAM. The reaction was quenched at each time point by the addition of an equal volume of 0.2 M NaOH.
(1 picture or pasted object on this page, not shown here)

k1 (formation of the primary enzyme–substrate complex) [1] [M⁻¹ s⁻¹]	Kd [1] [nM]	Molecule	k1 × 10^−6 [1] [M^−1 s^−1]	k2 [1] [s⁻¹]	k3 [1] [s⁻¹]	kr (irreversible step of substrate hydroxylation) [1] [s⁻¹]	k−1 [1] [s⁻¹]	k−2 [1] [s⁻¹]	k−3 [1] [s⁻¹]	kr (irreversible step of substrate hydroxylation) ([1]; listed as wt) [s⁻¹]	Ka = K1 + K1 × K2 + K1 × K2 × K3 [1]	observed rate constant for demethylation, kobs [2] [min⁻¹]	maximum DNA substrate demethylation degree (product yield) [2]	kr (irreversible step of substrate hydroxylation) ([1]; listed as Y143F) [s⁻¹]
9.4e+07	720	B1	19 ± 3	2.9 ± 0.9	0.57 ± 0.12	0.023 ± 0.003	64 ± 5	2.8 ± 0.5	0.13 ± 0.01	0.023	(1.9 ± 0.2) × 10^6 M^−1	0.70 ± 0.08		
		B2											undetectable	
1.9e+07	83	B3	94 ± 3	6.1 ± 1.4	1.4 ± 0.1	0.013 ± 0.001	270 ± 26	7.7 ± 0.24	0.48 ± 0.03		(1.4 ± 0.1) × 10^6 M^−1	0.17 ± 0.02	30%	0.013
		B4											≤ 7%	
		B5											10%	
